B1: Pistol ribozyme (parent)
chain: GGGUCGUUGUUCCAUAAUCGCGUGGAUAUGGCACGCAAGUUUCUACCGGGCACCGUAAAUGUCCGACUGGAGCCGUUCGGGCGGCUAUAAACAGACCUCAGGCCCGAAGCGUGGCGGCACCUGCCGCCGGUGGUAAAAAAGAUCGGAAGAGCACACGUCU

The variants in the data set derive from B1. Nature of the data set: aptazyme ON/OFF ratio, guanine; higher = stronger switching; co-transcriptional cleavage with and without guanine.
GGGUCGUCCUCCAAUAAUCGCGUGGAUAUGGCACGCAAGUUUCUACCGGGCACCGUAAAUGUCCGACUGGAGCCGUUCGGGCGGCUAUAAACAGACCUCAGGCCCGAAGCGUGGCGGCACCUGCCGCCGGUGGUAAAAAAGAUCGGAAGAGCACACGUCU [U8C G9C U11C C13A]: the “aptazyme ON/OFF ratio” value was 1.11.

GGGUCGUCUUUCCAUAAUCGCGUGGAUAUGGCACGCAAGUUUCUACCGGGCACCGUAAAUGUCCGACUGGAGCCGUUCGGGCGGCUAUAAACAGACCUCAGGCCCGAAGCGUGGCGGCACCUGCCGCCGGUGGUAAAAAAGAUCGGAAGAGCACACGUCU [U8C G9U]: the “aptazyme ON/OFF ratio” value is 2.46.

Consider GGGUCGUCCUGGAAUAAUCGCGUGGAUAUGGCACGCAAGUUUCUACCGGGCACCGUAAAUGUCCGACUGGAGCCGUUCGGGCGGCUAUAAACAGACCUCAGGCCCGAAGCGUGGCGGCACCUGCCGCCGGUGGUAAAAAAGAUCGGAAGAGCACACGUCU [U8C G9C U11G C12G C13A], for which the “aptazyme ON/OFF ratio” value came to 1.12.

For the variant GGGUCGUCCUGGGAUAAUCGCGUGGAUAUGGCACGCAAGUUUCUACCGGGCACCGUAAAUGUCCGACUGGAGCCGUUCGGGCGGCUAUAAACAGACCUCAGGCCCGAAGCGUGGCGGCACCUGCCGCCGGUGGUAAAAAAGAUCGGAAGAGCACACGUCU [U8C G9C U11G C12G C13G], the “aptazyme ON/OFF ratio” value was 1.12.

In the case of GGGUCGUCCUGGUAUAAUCGCGUGGAUAUGGCACGCAAGUUUCUACCGGGCACCGUAAAUGUCCGACUGGAGCCGUUCGGGCGGCUAUAAACAGACCUCAGGCCCGAAGCGUGGCGGCACCUGCCGCCGGUGGUAAAAAAGAUCGGAAGAGCACACGUCU [U8C G9C U11G C12G C13U], the “aptazyme ON/OFF ratio” value was found to be 1.09.

Turning to GGGUCGUCCUGGCAUAAUCGCGUGGAUAUGGCACGCAAGUUUCUACCGGGCACCGUAAAUGUCCGACUGGAGCCGUUCGGGCGGCUAUAAACAGACCUCAGGCCCGAAGCGUGGCGGCACCUGCCGCCGGUGGUAAAAAAGAUCGGAAGAGCACACGUCU [U8C G9C U11G C12G], the “aptazyme ON/OFF ratio” value was 1.19.

As to GGGUCGUCCUGACAUAAUCGCGUGGAUAUGGCACGCAAGUUUCUACCGGGCACCGUAAAUGUCCGACUGGAGCCGUUCGGGCGGCUAUAAACAGACCUCAGGCCCGAAGCGUGGCGGCACCUGCCGCCGGUGGUAAAAAAGAUCGGAAGAGCACACGUCU [U8C G9C U11G C12A], the “aptazyme ON/OFF ratio” value amounted to 1.13.

For GGGUCGUCCUGUCAUAAUCGCGUGGAUAUGGCACGCAAGUUUCUACCGGGCACCGUAAAUGUCCGACUGGAGCCGUUCGGGCGGCUAUAAACAGACCUCAGGCCCGAAGCGUGGCGGCACCUGCCGCCGGUGGUAAAAAAGAUCGGAAGAGCACACGUCU [U8C G9C U11G C12U], the “aptazyme ON/OFF ratio” value was found to be 1.12.

With GGGUCGUCUUUGAAUAAUCGCGUGGAUAUGGCACGCAAGUUUCUACCGGGCACCGUAAAUGUCCGACUGGAGCCGUUCGGGCGGCUAUAAACAGACCUCAGGCCCGAAGCGUGGCGGCACCUGCCGCCGGUGGUAAAAAAGAUCGGAAGAGCACACGUCU [U8C G9U C12G C13A], the “aptazyme ON/OFF ratio” value was determined as 1.21.

Turning to GGGUCGUCCUGAAAUAAUCGCGUGGAUAUGGCACGCAAGUUUCUACCGGGCACCGUAAAUGUCCGACUGGAGCCGUUCGGGCGGCUAUAAACAGACCUCAGGCCCGAAGCGUGGCGGCACCUGCCGCCGGUGGUAAAAAAGAUCGGAAGAGCACACGUCU [U8C G9C U11G C12A C13A], the “aptazyme ON/OFF ratio” value was 1.09.

Take GGGUCGUCCUGAUAUAAUCGCGUGGAUAUGGCACGCAAGUUUCUACCGGGCACCGUAAAUGUCCGACUGGAGCCGUUCGGGCGGCUAUAAACAGACCUCAGGCCCGAAGCGUGGCGGCACCUGCCGCCGGUGGUAAAAAAGAUCGGAAGAGCACACGUCU [U8C G9C U11G C12A C13U]: the “aptazyme ON/OFF ratio” value was 1.1.

GGGUCGUCCUGAGAUAAUCGCGUGGAUAUGGCACGCAAGUUUCUACCGGGCACCGUAAAUGUCCGACUGGAGCCGUUCGGGCGGCUAUAAACAGACCUCAGGCCCGAAGCGUGGCGGCACCUGCCGCCGGUGGUAAAAAAGAUCGGAAGAGCACACGUCU [U8C G9C U11G C12A C13G]: the “aptazyme ON/OFF ratio” value is 1.14.

As to GGGUCGUCCUCUCAUAAUCGCGUGGAUAUGGCACGCAAGUUUCUACCGGGCACCGUAAAUGUCCGACUGGAGCCGUUCGGGCGGCUAUAAACAGACCUCAGGCCCGAAGCGUGGCGGCACCUGCCGCCGGUGGUAAAAAAGAUCGGAAGAGCACACGUCU [U8C G9C U11C C12U], the “aptazyme ON/OFF ratio” value came to 1.08.

With GGGUCGUCCUCGCAUAAUCGCGUGGAUAUGGCACGCAAGUUUCUACCGGGCACCGUAAAUGUCCGACUGGAGCCGUUCGGGCGGCUAUAAACAGACCUCAGGCCCGAAGCGUGGCGGCACCUGCCGCCGGUGGUAAAAAAGAUCGGAAGAGCACACGUCU [U8C G9C U11C C12G], the “aptazyme ON/OFF ratio” value was 1.26.

For the variant GGGUCGUCCUCGUAUAAUCGCGUGGAUAUGGCACGCAAGUUUCUACCGGGCACCGUAAAUGUCCGACUGGAGCCGUUCGGGCGGCUAUAAACAGACCUCAGGCCCGAAGCGUGGCGGCACCUGCCGCCGGUGGUAAAAAAGAUCGGAAGAGCACACGUCU [U8C G9C U11C C12G C13U], the “aptazyme ON/OFF ratio” value turned out to be 1.15.

For the variant GGGUCGUCCUCGAAUAAUCGCGUGGAUAUGGCACGCAAGUUUCUACCGGGCACCGUAAAUGUCCGACUGGAGCCGUUCGGGCGGCUAUAAACAGACCUCAGGCCCGAAGCGUGGCGGCACCUGCCGCCGGUGGUAAAAAAGAUCGGAAGAGCACACGUCU [U8C G9C U11C C12G C13A], the “aptazyme ON/OFF ratio” value worked out at 1.2.

For the variant GGGUCGUCCUCGGAUAAUCGCGUGGAUAUGGCACGCAAGUUUCUACCGGGCACCGUAAAUGUCCGACUGGAGCCGUUCGGGCGGCUAUAAACAGACCUCAGGCCCGAAGCGUGGCGGCACCUGCCGCCGGUGGUAAAAAAGAUCGGAAGAGCACACGUCU [U8C G9C U11C C12G C13G], the “aptazyme ON/OFF ratio” value was 1.26.

As to GGGUCGUCCUGCCAUAAUCGCGUGGAUAUGGCACGCAAGUUUCUACCGGGCACCGUAAAUGUCCGACUGGAGCCGUUCGGGCGGCUAUAAACAGACCUCAGGCCCGAAGCGUGGCGGCACCUGCCGCCGGUGGUAAAAAAGAUCGGAAGAGCACACGUCU [U8C G9C U11G], the “aptazyme ON/OFF ratio” value came out at 1.03.

The values are drawn from the RNAGym collection of RNA variant scans (doi:10.1021/acssynbio.7b00057).
